Assay results reported in patent US20250179196A1 (Janssen / Centocor, published 2025).
Where a chain is given by its changes, count along the chain named. Values belong to the binder of their own block, whether it stands above or below them.

Assays:
[1] = target: T1, human IL-23R expressed on the cell surface of stably transfected iLite and HEK cell lines (human, UniProt Q5VWK5 24-629); test: flow cytometry on human IL-23R HEK cells, Expt D (8-point, 96well)
T1 construct: whole, on cells; Same receptor on two transfected cell lines; the cell line is named under assay; also called human IL-23R iLite cells; human IL-23R HEK cells
T1 sequence (looked up): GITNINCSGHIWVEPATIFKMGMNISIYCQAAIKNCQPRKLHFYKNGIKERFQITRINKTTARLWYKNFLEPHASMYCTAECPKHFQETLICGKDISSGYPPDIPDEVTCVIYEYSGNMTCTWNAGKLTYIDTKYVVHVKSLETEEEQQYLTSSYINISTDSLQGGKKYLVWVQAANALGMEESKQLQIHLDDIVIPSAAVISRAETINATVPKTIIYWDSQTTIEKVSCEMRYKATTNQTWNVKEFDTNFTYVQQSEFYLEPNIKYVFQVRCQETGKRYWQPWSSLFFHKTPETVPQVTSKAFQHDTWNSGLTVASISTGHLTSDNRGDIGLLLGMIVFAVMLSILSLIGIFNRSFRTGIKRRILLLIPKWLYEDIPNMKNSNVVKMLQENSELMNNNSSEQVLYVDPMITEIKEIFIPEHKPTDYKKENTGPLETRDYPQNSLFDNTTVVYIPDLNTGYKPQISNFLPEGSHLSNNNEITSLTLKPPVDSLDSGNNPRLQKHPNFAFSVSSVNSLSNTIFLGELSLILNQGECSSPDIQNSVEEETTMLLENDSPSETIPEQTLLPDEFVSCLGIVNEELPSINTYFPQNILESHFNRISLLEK
Experimental: HEK-IL-23R cell concentration response mAb binding (8-point, 96-well assay). […] HEK-IL-23R and HEK-parental cells (12.5 μL of each, 120000 cells total) were plated in 2× replicate on 96-well V-bottom plates (Corning, Cat #3357) into 37° C. warmed Assay medium containing serially diluted IL-23R mAbs to a final volume of 150 μL. IL-23R mAbs were allowed to bind to cells for 30 minutes, at 37° C. […] Cells were next washed twice in ice-cold stain buffer, then resuspended in a final volume of 30 μL with Sytox Green viability dye (ThermoFisher, Cat #S7020). Plates were kept on ice until run for analysis on the iQue. All washes were performed by centrifugation (800 rcf, 3 minutes) followed by flick decantation to remove supernatants. Cell-binding to HEK-IL-23R cells was measured with FlowJo, by gating for single, viable cells and determining the geometric mean fluorescence intensity (MFI) for the 647 detection antibody. Geometric mean fluorescence intensities were plotted over log mAb concentrations fitted with a dose response curve with variable slope using GraphPad Prism.

[2] = target: T1, human IL-23R expressed on the cell …; test: flow cytometry on human IL-23R HEK cells, Expt E (11-point, 384well)
Experimental: HEK-IL-23R cell concentration response mAb binding (11-point, 384-well assay). […] IL-23R mAbs were allowed to bind to cells for 30 minutes, at 37° C. […] Cells were next washed twice in ice-cold stain buffer, then resuspended in a final volume of 10 μL with Sytox Green viability dye (ThermoFisher, Cat #S7020). Plates were kept on ice until run for analysis on the iQue. All washes were performed by centrifugation (800 rcf, 3 minutes) followed by automated aspiration to remove supernatants with plate washers. Cell-binding to HEK-IL-23R cells was measured with FlowJo, by gating for single, viable cells and determining the geometric mean fluorescence intensity (MFI) for the 647 detection antibody. Geometric mean fluorescence intensities were plotted over log mAb concentrations fitted with a dose response curve with variable slope using GraphPad Prism.

- EC50 [1]: 1.8 nM
- EC50 [2]: 11.6 nM
- MFI (6.4 nM) [2]: 158000 MFI
B1: I23RB73 (antibody, mouse IgG2a, kappa, V domains shown)
VH: EVQLQQSGAELVKPGASVKISCKASGYTFTDHAIHWVKQRPEQGLEWIGYISLGNGDIKYSEKFRGKATLTADKTSNTAYMQLNSLTSEDSAVYFCKRSRVLRWTTYWYFDVWGAGTSVTVSS
VL: DIVMTQSHKFMSTSVGDRVSITCKASQDVSTAVAWYQQKPGQSPKLLIYWASTRLTGVPDRFTGSGSGTDYTLTISSVQAEDLALYYCQQYYNTPLTFGAGTKLELKR
notes: immunization; mouse IgG2a/kappa

- EC50 [1]: 0.2 nM
- EC50 [2]: 4.8 nM
- MFI (6.4 nM) [2]: 184000 MFI
B2: I23RB77 (antibody, mouse IgG2a, kappa, V domains shown)
VH: DVQLQESGPGLVAPSQSLSITCTVSGFSLSRYSVHWVRQPPGKGLEWLGMIWGSGSTDYNSALKSRLSINKDNSKSQVFLKMNSLQTDDTAMYYCARVYYGGSPYAMDYWGQGTTVTVSS
VL: DIVMTQSPASLALSLGQRATISCRASESVDSYGNSFMHWYQQKPGQPPKLLIYLASNLESGVPARFSGSGSRTDFTLTIDPVEADDAAIYYCQQNNEEPNTFGAGTKLEMKR
notes: as for B1

- EC50 [1]: 23.1 nM
- EC50 [2]: 11.6 nM
- MFI (6.4 nM) [2]: 150000 MFI
B3: I23RB58 (antibody, mouse IgG2a, kappa, V domains shown)
VH: EVKLVESGGGLVKPGGSLKLSCAASGFSFIIYTMSWVRQTPEKRLEWVAYITSGGGITYYPDSVKGRFTISRDNARNTLYLQMSSLRSEDTAMYYCARHEGDYYDDYYRIGYAMDYWGQGTSVTVSS
VL: B2 VL with S7T, L13V, L54R, V62I, D80N, A87V, I89T, N95S, E98D, N100L
notes: as for B1

- EC50 [1]: 0.6 nM
- EC50 [2]: 27.7 nM
- MFI (6.4 nM) [2]: 93700 MFI
B4: I23RB60 (antibody, mouse IgG2a, kappa, V domains shown)
VH: DVQLQESGPELVKPGDSVKMSCEASGYTFTDYYIDWVKQSHGKSLEWIGYIYPNNGGISFNQKFEGKATLTVDKSSSTAYMELHSLTSEDSAVYYCAREKLRGRDYWGQGTTLTVSS
VL: DIVMTQSTSSLSASLGDRVTISCRASQDIRNNLNWYQQKPDGTVKLLIFYSSRLHSGVPSRFSGSGSGTDYSLTISNLEQEDIATYFCQQGHTLPWTFGAGTKLELKR
notes: as for B1

- EC50 [1]: 0.6 nM
- EC50 [2]: 9.8 nM
- MFI (6.4 nM) [2]: 181000 MFI
B5: I23RB82 (antibody, mouse IgG2a, kappa, V domains shown)
VH: QVQLKESGPGLVAPSQSLSITCTVSGFSLTNYALHWFRQSPGKGLEWLGVIWSDGSTDYNSPFISRLSISKDNSKSQVFFKMNSLQADDTAIYYCARSRSNYGRWYFDVWGAGTTLTVSS
VL: QIVLSQSHKFMSTSVGDRVSITCKASQDVSTAVAWYQQKPGQSPKLLIYSAFYRYTGVPDRFTGSGSGTDFTFTISSVQAEDLAVYYCQQHYSTPYTFGGGTKLEIKR
notes: as for B1

- EC50 [1]: 0.9 nM
- EC50 [2]: 7.2 nM
- MFI (6.4 nM) [2]: 181000 MFI
B6: I23RB81 (antibody, mouse IgG2a, kappa, V domains shown)
VH: DVQLQESGPGLVAPSQSLSITCTVSGFSLTSYAINWVRQPPGKGLEWLGVIWTGGGTNYNSALKSRLSISKDNSKSQLFLKMNSLQTDDTARYYCARNRDYSNYRWYFDVWGAGTSVTVSS
VL: B5 VL with Q1D, L4M, S5T, T22I, F52S, Y96L, G100A, K103R
notes: as for B1

- EC50 [1]: ~6.7 nM
- EC50 [2]: 3.4 nM
- MFI (6.4 nM) [2]: 110000 MFI
B7: I23RB71 (antibody, mouse IgG2a, kappa, V domains shown)
VH: DVQLQESGPDLVKPSQSLSLTCTVTDYSITRGYNWHWIRQFPGNKLEWMGYIHYSGSTNYNPSLKSRISITRDTSKNQFFLQLNSVTTEDTATYYCARQYGLKAMDYWGQGTSVTVSS
VL: B5 VL with Q1D, L4M, S5T, S30I, F52S, Y87F, Y92F, S93G, G100S, I106M
notes: as for B1

- EC50 [1]: 0.3 nM
- EC50 [2]: 3.8 nM
- MFI (6.4 nM) [2]: 277000 MFI
B8: I23RB39 (antibody, mouse IgG2a, kappa, V domains shown)
VH: EVQLQQSGPELVKPGAPVKISCKASGYTFTNYYIHWVKQRPGQGLEWIGYIYPGNGGTAYNQKFKDKATLTADNPSSTAYMQLSSLTSEDSAVYFCARSRGGSRNYFDYWGQGTTLTVSS
VL: B5 VL with Q1D, V3Q, L4M, S5T, T94S, Y96R, G100A, I106L
notes: as for B1

- EC50 [1]: 0.5 nM
- EC50 [2]: 8.9 nM
- MFI (6.4 nM) [2]: 193000 MFI
B9: I23RB93 (antibody, mouse IgG2a, kappa, V domains shown)
VH: QVQLKESGPGLVQPSQSLSITCTVSGFSLTSYGVHWVRQSPGKGLEWLGVIWSGVSTDYNAAFISRLSISKDNSKSQVFFKMNSLQADDTAIYYCARSRGSYYFDYWGQGTTLTVSS
VL: DIKMTQSPATLSVTPGDSVSLFCRASQSISNNLHWYQQKSHESPRLLIKYASQSISGIPSRFSGSGSGTDFTLSINSVETEDFGMYFCQQSNSWPLTFGGGTKLEIKR
notes: as for B1

- EC50 [1]: 0.3 nM
- EC50 [2]: 13 nM
- MFI (6.4 nM) [2]: 185000 MFI
B10: I23RB74 (antibody, mouse IgG2a, kappa, V domains shown)
VH: DVQLQESGPGLVKPSQSLSLTCSVTGYSITSGYYWNWIRQFPGNKLEWMGYISYDGSFNYNPSLKNRLSITRDTSMNQFFLKLNSVTSEDTATYYCARAEIYYDYDGDFDYWGQGTTLTVSS
VL: DIVLTQSPASLAVSLGQRATISCRASKSVSTSGSNFLHWYQQKPGQPPKLLIYFASNLESGVPARFSGSGSGTDFTLNIHPVEEEDAATYYCQHSRELPHTFGAGTKLELKR
notes: as for B1

- EC50 [1]: 0.4 nM
- EC50 [2]: 7.3 nM
- MFI (6.4 nM) [2]: 171000 MFI
B11: I23RB36 (antibody, mouse IgG2a, kappa, V domains shown)
VH: QIQLVQSGAELVKPGASVKLSCTTSGFNIKDTYIHWMKQRPEQGLEWIGRIDPANGNTIYASKFQGKATLTTDTSSNTAYMLLSSLTSGDTAVYYCTRGTSWFAYWGQGTTVTVSS
VL: DIVMTQSPKSMSMSVGERVTLSCKASENVGTSVSWFQQKPEQSPKLLIYGASNRYTGVPDRFTGSGSATDFTLTISSVQAEDLADYHCGQSYSYPRTFGGGTKLEIKR
notes: as for B1

- EC50 [1]: 0.6 nM
- EC50 [2]: > 50 nM
- MFI (6.4 nM) [2]: 118000 MFI
B12: I23RB61 (antibody, mouse IgG2a, kappa, V domains shown)
VH: DVQLQESGAELVKPGASVKLSCKSFDYTFTSFDINWMKQRPGQGLEWIGWIFPGSGTTNYNEKFKGKATLTADKSSSTAYMHLTSLTSEDSAVYFCARRLTGTRYFDVWGTGTTLTVSS
VL: DIQMTQSHKFLSTSVGDRITITCKASQDVITAVAWYQQKSGQSPKLLIYWASTRHTGVPDRFTGSGSGTDYTLTISNVQAEDLALYYCQQHYTTPPTFGAGTKLELKR
notes: as for B1

- EC50 [1]: 0.7 nM
- EC50 [2]: 31.5 nM
- MFI (6.4 nM) [2]: 121000 MFI
B13: I23RB83 (antibody, mouse IgG2a, kappa, V domains shown)
VH: DVQLQESGPGLVAPSQSLSITCTVSGFSLTNYDVHWVRQSPGKGLEWLGVIWSDGSTDYNAAFISRLSFSKDNSKRQVFFKMNSLQPDDTAIYYCARNNYYRYGRNPMDYWGQGTTVTVSS
VL: DIQMTQSPASQSASLGESVTITCLASQTIGSWLAWYQQKPGKSPQLLIYAATSLADGVPSRFSGSGSGTKFSFKISSLQAEDFVSYYCQQLYSSPLTFGGGTKLEIKR
notes: as for B1

- EC50 [1]: 1.2 nM
- EC50 [2]: 22.8 nM
- MFI (6.4 nM) [2]: 164000 MFI
B14: I23RB86 (antibody, mouse IgG2a, kappa, V domains shown)
VH: EVQLQQSGAELVKPGASVKLSCKASGYTFTSYWLHWVKQRPGQGLEWIGEIDPSDSYTYYNQKFKGKATLTVDKSSSTAYMQLSSLTSEDSAVYYCARSPYDYDWGAYWGQGTSVTVSS
VL: DIVMTQSPSSMSVSLGDTVSITCHASQGISSNIGWLQQKPGKSFKGLIYHGTNLEDEVPSRFSGSGSGADYSLTIGSLESEDFADYYCVQYAQFPWTFGAGTKLEMKR
notes: as for B1
